This data set has as its target PHR1-His (UniProt Q94CL7 1-409). Kind of data set: EMSA; without SnRK1 (unphosphorylated); 10 mM Tris-HCl pH 8.0, 100 mM NaCl, 10% glycerol, 2 mM DTT, 0.05% NP-40; 0.5 ug protein in 30 ul, 22 C, 30 min; 4.5% acrylamide gel, 0.5x TBE. The note with it: protein: recombinant; tags: His (pET28b(+)); chain copies: 2; label: 32P 5' end label on sense strand (T4 PNK); blunt.

Sequence of PHR1-His (Q94CL7 whole entry): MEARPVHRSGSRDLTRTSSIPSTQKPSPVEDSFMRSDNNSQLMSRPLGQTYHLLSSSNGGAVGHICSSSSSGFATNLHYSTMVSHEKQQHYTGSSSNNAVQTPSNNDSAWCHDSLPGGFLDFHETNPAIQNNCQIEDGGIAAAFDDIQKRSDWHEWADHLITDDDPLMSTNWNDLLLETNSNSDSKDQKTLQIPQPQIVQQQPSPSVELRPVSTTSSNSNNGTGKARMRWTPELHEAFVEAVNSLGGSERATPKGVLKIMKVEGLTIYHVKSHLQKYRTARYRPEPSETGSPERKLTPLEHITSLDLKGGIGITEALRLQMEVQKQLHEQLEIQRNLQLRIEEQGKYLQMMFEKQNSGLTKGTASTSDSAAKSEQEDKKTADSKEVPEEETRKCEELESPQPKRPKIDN

B1: AtIPS1 P1BS probe (dsDNA)
DNA 1: CAATTTTGGTAACGGCATATTCCATCGGATGATCCAAAATTCTCAAAA
DNA 2: TTTTGAGAATTTTGGATCATCCGATGGAATATGCCGTTACCAAAATTG
In the case of B1, the binding result is “binds”.

These data come from article PMC10107491, “Phosphorylation of S11 in PHR1 negatively controls its transcriptional activity”.
